Source: patent US20250304658A1 (ICAHN SCHOOL OF MEDICINE AT MOUNT SINAI, published 2025)
Several values for one entry are separate records, joined by “and”; a condition that tells them apart may be missing. Equal values may be shown once. Read-outs that look alike come from different tables or passages of the source.

Assays:
Test in all cases: cell-based or functional assay
[1] = target: BK virus VP1 protein, genotype II (BK virus)
[2] = target: BK virus VP1 protein, genotype III (BK virus)
[3] = target: BK virus VP1 protein, genotype IV (BK virus)
[4] = target: BK virus VP1 protein, genotype II (BK virus); remark: listed apart in the source
[5] = target: BK virus VP1 protein, genotype III (BK virus); remark: listed apart in the source
[6] = target: BK virus VP1 protein, genotype IV (BK virus); remark: listed apart in the source

Row | Binder | EC50, pseudovirus neutralization [1] [nM] | EC50, pseudovirus neutralization [2] [nM] | EC50, pseudovirus neutralization [3] | EC50, pseudovirus neutralization (mAb mixed with irrelevant isotype matched mAb M2) [4] [nM] | EC50, pseudovirus neutralization (mAb mixed with irrelevant isotype matched mAb M2) [5] [nM] | EC50, pseudovirus neutralization (mAb mixed with irrelevant isotype matched mAb M2) [6] [nM] | EC50, pseudovirus neutralization [4] [nM] | EC50, pseudovirus neutralization [5] [nM] | EC50, pseudovirus neutralization [6] [nM]
1 | 7A4 (antibody, V domains shown) VH: QVQLVESGGDLVKPGGSLRLSCVASGFTFSDYYMNWIRLPPGKGLEWISYIDSSAGAIYYADSVKGRFTVSRDDAKNSLFLHMNSLRADDTAVYYCVRERRDGHKIFDYWGPGTLVTVSS VL: DIVMTQSPDSLAVSLGERATINCKSSQNILYSSNNKNYLAWYQQKAGQPPKLLIFWSSIRESGVPDRFSGSGSGTDFTLTISSLQAEDVAVYYCQQYYSSPYNFGRGTTLEIK | 0.0132 | 0.0081 | 0.0251 nM |  |  |  |  |  | 
2 | 2H1 (antibody, V domains shown) VH: QVQLVESGGDLVKPGGSLRLSCVASGFTFSDYYMNWIRLPPGKGLEWISYIDSSAGAIYYADSVKGRFTVSRDDAKNSLFLHMNSLRADDTAVYYCARERRDGHKIFDCWGPGTLVTVSS VL: DIVMTQSPDSLAVSLGERATINCKSSQNILYSSNNKNYLAWYQQKTGQPPKLLIFWSSTRESGVPDRFSGSGSGTDFTLTISSLQAEDVAVYYCQQYYSSPYNFGRGTTLEIK |  |  | 0.0728 nM and 0.0815 nM |  |  |  |  |  | 
3 | 8A11 (antibody, V domains shown) VH: QVQLVESGGDLVKPGGSLRLSCVASGFTFSDYYMNWIRLPPGKGLEWISYIDSSAGATYYADSVKGRFTVSRDDAKNSLFLHMNSLRAEDTAVYYCARERRSGHKIFDCWGPGTLVTVSS VL: DIVMTQSPDSLAVSLGERATINCKSSQNILYSSNNKNYLAWYQQKAGQPPKLLIFWSSTRESGVPDRFSGSGSGTDFTLTISSLQAEDVAVYYCQQYYSSPYNFGRGTTLEIK | 0.0014 | 0.0315 | 0.0948 nM |  |  |  |  |  | 
4 | 9B4 (antibody, V domains shown) VH: QVQLVESGGDLVKPGGSLRLSCVASGFTFSDYYMNWIRLPPGKGLEWISYIDSSAGAIYYADSVKGRFTVSRDDAKNSLFLHMNSLRADDTAVYYCARERREGHKIFDFWGPGTLVTVSS VL: DIVMTQSPDSLALSLGERATINCKSSQNILYSSNNKNYLACYQQKAGQPPKLLIFWSSTRESGVPDRFSGSGSGTDFTLTISSLQAEDVAVYYCQQYYSSPYNFGRGTTLEIK | 0.0152 | 0.0118 | 0.0118 nM |  |  |  |  |  | 
5 | 2F7 (antibody, V domains shown) VH: QVQLVESGGGLVKPGGSLRLSCVASGFTFSDYYMNWIRLPPGRGLQWISYIDSSAGAIYYADSVKGRFTVSRDDAKNSLYLQMNSLRADDTAVYYCARERRDGHKIFDWWGQGTLVTVSS VL: DIVMTQSPDSLAVSLGERATINCKSSQNILYTSNNKNYLGWYQQKAGQPPKLLIYWSSTRNSGVPDRFSGSGSGTDFTLTISSLQAEDVAVYYCHQYYSSPYTFGQGTNLEIK | 0.0011 | 0.0022 | 0.0724 nM |  |  |  |  |  | 
6 | 8D10 (antibody, V domains shown) VH: QVHLVESGGDLVKPGGSLRLSCVASGFTFSDYYMNWIRLPPGKGLEWISYIDSSAGAIYYADSVKGRFTVSRDDAKNSMFLHMNSLRADDTAVYYCARERRDGHKIFDYWGPGTLVTVSS VL: DIVMTQSPDSLAVSLGERATINCKSSQNILYSSNNKNYLAWYQQKAGQPPKLLIFWSSTRESGVPDRFSGSGSGTDFTLTISSLQAEDVAVYYCQQYYSSPYNFGRGTTLEIK | 0.0492 | 0.029 | 0.0894 nM |  |  |  |  |  | 
7 | 5A8 (antibody, V domains shown) VH: QVQLVESGGDLVKPGGSLRLSCVASGFTFSDYYMNWIRLPPGRGLEWISYIDSSAGAIYYADSVKGRFTVSRDDAKKSLFLYMNSLRADDTAVYYCARERRDGHKIFDYWGPGTLVTVSS VL: DIVMTQSPDSLAVSLGERATINCKSSQNILYSSNNKNYLAWYQQKAGQPPKLLIFWSSTRESGVPDRFSGSGSGTDFTLTISSLQAEDVAVYYCHQYYSSPYNFGRGTTLEIK | 0.0009 | 0.0039 | 0.0774 nM |  |  |  |  |  | 
8 | 4F7 (antibody, V domains shown) VH: QVQLVESGGDLVKPGGSLRLSCVASGFTFSDYYMNWIRLPPGKGLEWISYIDSSAGAIYYADSVKGRFTVSRDDAKNSLFLHMNNLRADDTAVYYCARERRDGHKIFDCWGPGTLVTVSS VL: DIVMTQSPDSLAVSLGERATINCKSSQNILYSSNNKNYLAWYQQKAGQPPKLLIFWSSTRESGVPDRFSGSGSGTDFTLTISSLQAEDVAVYYCQQYYSSPYNFGRGTTLEIK | 0.0319 | 0.0143 | 0.0416 nM |  |  |  |  |  | 
9 | 1E2 (antibody, V domains shown) VH: QVQLVESGGDLVKPGGSLRLSCVASGFTFSDYYMNWIRLPPGKGLEWVSYIDSSAGAIYYADSVRGRFTVSRDDAKNSLFLHMNSLRADDTAVYYCARERRDGHKIFDCWGPGTLVTVSS VL: DIVMTQSPDSLAVSLGERATINCKSSQNILYSSNNKNYLAWYQQKAGQPPKLLIFWSSTRESGVPDRFSGSGSGTDFTLTINSLQAEDVAVYYCQQYYSSPYNFGRGTTLEIK | 0.0332 | 0.0081 | 0.143 nM |  |  |  |  |  | 
10 | 1H10 (antibody, V domains shown) VH: QVHLVESGGDLVKPGGSLRLSCVASGFTFSDYYMNWIRMPPGKGLEWISYIDSSAGAIYYADSVKGRFTVSRDDAKNSLFLHMNNLRADDTAVYYCARERRDGHKIFDCWGPGTLVTVSS VL: DIVMTQSPDSLAVSLGERATINCKSSQNILYSSNNKNYLAWYQQKAGQPPKLLIFWSSTRESGVPDRFSGSGSGTDFTLTISSLQAEDVAVYYCQQYYSSPYNFGRGTTLEIK | 0.0028 | 0.0397 | 0.107 nM |  |  |  |  |  | 
11 | 6H12 (antibody, V domains shown) VH: EVQLVESGGGLVQPGGSLRLSCAASGFTFSSYEMNWVRQAPGKGLEWVSYISSGGSSIKYADSVRGRFAFSRDNAENSVHLQMNSLRAEDTAVYYCARVGGSYYYSYAMDVWGQGTAVTVSS VL: DIQLTQSPSFLSASVGDRVTITCWASQDISSYLAWYQQKPGKAPKLLIYAASTLQSGVPSRFTGSGSGTEFTLTISSLQPEDFATYYCQQPHNSPFSFGPGTKVDVK | 0.0109 | 0.127 | 2.21 nM | 0.0024 | 0.172 | 0.944 |  |  | 
12 | 11D12 (antibody, V domains shown) VH: EVQLVESGGGLVQPGGSLRLSCAASGFTFSSYEMNWVRQAPGKGLEWVSYISSGGSSIKYADSVRGRFTFSRDNAENSVFLQMNSLRGEDTAVYYCARVGGSYYYSYAMDVWGQGTAVTVSS VL: DIQLTQSPSFLSASVGDRVTITCWASQDISSYLAWYQQKPGKAPKLLIYAASTLQSGVPSRFSGSGSGTEFTLTISSLQPEDFATYYCQQPNNYPFSFGPGTKVDVK | 0.0095 | 6.38 | > 6.67 nM |  |  |  |  |  | 
13 | 7H8 (antibody, V domains shown) VH: EVQLLESGGGLVQPGGSLRLSCAASGFAFHTYDMTWVRQAPGKGLEWVSGVVGSGINTYYADSVKGRFTISRDNSKSTLYLQMNSLRAEDTAVYYCAKDSSSWFSLHYWGQGTLVTVSS VL: DIQMTQSPSTLSASVGDRVTITCRASQSISNWLAWYQQKPGKAPKLLIYKASSLESGVPSRFSGSGSGTDFTLTISSLQPDDFASYYCQQYRSYAYTFGQGTKLEIT | 0.05 | 0.0334 | 0.0943 nM |  |  |  |  |  | 
14 | 14F5 (antibody, V domains shown) VH: EVQLLESGGGLVQPGGSLRLSCAVSGFTFSSFAMSWVRQAPGKGLEWVSGISASGGTTNYADSVKGRFTISRDNSKNTLYLQMSSLRAEDTAEYYCAKDRFLEWVEGFDPWGQGILVTVSP VL: DIQMTQSPSSLSASVGDRVTITCRASQSIGRFLIWYQQKPGKAPKLLLYATSSLQSGVPARFTGSGSGTDFTLTIGSLQPEDFATYYCQQSYITPLTFGGGTKVEIK | 0.0131 | 0.0215 | 0.0671 nM |  |  |  |  |  | 
15 | 9G9 (antibody, V domains shown) VH: EVQLLESGGGLVQPGGSLRLSCAASGFTFHNYAMSWVRQAPGKGLEWVSGISGSGGTAYYADSVKGRFTISRDNSKNTLYLQMNSLRADDTALYYCAKDRFLEWVEGFDSWGQGTLVTVSS VL: DIQMTQSPSSLSASVGDRVTITCRASQSIGSFLIWYQQKPGKAPKLLIYAASSLQSGVPSRFSGSGSGTDFTLIISSLQPEDFATYYCQQSYNTPLTFGGGTKVEIK | 0.0032 | 1.7 | 0.11 nM | 0.0023 | 1.29 | 0.196 |  |  | 
16 | 15C10 (antibody, V domains shown) VH: EVQLLESGGGLVQPGGSLRLSCAASGFTFSSFAMSWVRQAPGKGLEWVSGISASGGTTNYADSVKGRFTISRDNSKNTLYLQMSSLRAEDTAEYYCAKDRFLEWVEGFDPWGQGILVTVSP VL: DIQMTQSPSSLSASVGDRVTITCRASQSIGRFLIWYQQKPGKAPKLLLYATSSLQSGVPARFTGSGSGTDFTLTIGSLQPEDFATYYCQQSYITPLTFGGGTKVEIK | 0.0131 | 0.0211 | 0.0423 nM |  |  |  | 0.00058 | 0.00186 | 0.0023
